# Where two headings read alike, the source gives them in different places.
# T1: denatured human collagen type III (UniProt P02461 154-1221)
# T1 chain: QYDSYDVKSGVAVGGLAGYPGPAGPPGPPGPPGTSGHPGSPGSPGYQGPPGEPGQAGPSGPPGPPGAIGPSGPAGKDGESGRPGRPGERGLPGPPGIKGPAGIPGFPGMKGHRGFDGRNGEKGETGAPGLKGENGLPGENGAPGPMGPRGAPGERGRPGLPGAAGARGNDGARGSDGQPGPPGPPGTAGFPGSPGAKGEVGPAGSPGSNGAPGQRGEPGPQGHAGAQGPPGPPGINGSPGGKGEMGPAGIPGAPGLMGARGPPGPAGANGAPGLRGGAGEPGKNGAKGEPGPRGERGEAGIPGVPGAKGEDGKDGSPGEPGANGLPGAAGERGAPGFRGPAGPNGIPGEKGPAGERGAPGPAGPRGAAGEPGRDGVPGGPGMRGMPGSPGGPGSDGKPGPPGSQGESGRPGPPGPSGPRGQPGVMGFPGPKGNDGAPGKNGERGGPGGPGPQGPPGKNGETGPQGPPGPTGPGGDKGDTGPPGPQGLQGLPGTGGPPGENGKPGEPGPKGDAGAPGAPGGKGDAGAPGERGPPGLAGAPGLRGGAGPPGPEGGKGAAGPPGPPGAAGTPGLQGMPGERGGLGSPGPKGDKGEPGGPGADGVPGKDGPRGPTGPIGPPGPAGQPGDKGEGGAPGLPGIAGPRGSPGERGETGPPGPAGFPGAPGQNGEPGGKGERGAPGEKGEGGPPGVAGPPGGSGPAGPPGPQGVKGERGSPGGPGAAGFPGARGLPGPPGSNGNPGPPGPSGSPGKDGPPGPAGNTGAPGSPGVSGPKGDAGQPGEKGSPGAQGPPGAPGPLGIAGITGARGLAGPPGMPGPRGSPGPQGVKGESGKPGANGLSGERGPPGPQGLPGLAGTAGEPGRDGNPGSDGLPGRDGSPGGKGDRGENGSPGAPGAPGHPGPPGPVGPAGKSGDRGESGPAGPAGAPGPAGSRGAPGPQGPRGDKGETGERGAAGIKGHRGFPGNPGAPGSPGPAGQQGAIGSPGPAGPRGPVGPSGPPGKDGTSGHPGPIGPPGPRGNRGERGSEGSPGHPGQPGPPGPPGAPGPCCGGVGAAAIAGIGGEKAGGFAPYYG
# Assays:
# Assay in all cases: ELISA
# [1] = biological target: denatured human collagen I (UniProt P02452 162-1218; P08123 80-1119)
# [2] = biological target: T2, denatured human collagen type IV (UniProt P02462 173-1669; P08572 184-1712)
# [3] = biological target: denatured mouse collagen IV (mouse, UniProt P02463 28-1669; P08122 26-1707)
# [4] = biological target: T1, denatured human collagen type III
# [5] = biological target: T3, denatured human collagen type V (UniProt P20908 38-1605)
# [6] = biological target: denatured mouse collagen I (mouse, UniProt P11087 152-1207; Q01149 86-1125)
# [7] = biological target: T1, denatured human collagen type III
# [8] = biological target: T3, denatured human collagen type V; remark: listed apart in the source
# [9] = biological target: T2, denatured human collagen type IV; remark: listed apart in the source
# [10] = biological target: T2, denatured human collagen type IV; remark: listed apart in the source
# Chain of denatured human collagen I (P02452 162-1218 A1075T, chain 1 of 2): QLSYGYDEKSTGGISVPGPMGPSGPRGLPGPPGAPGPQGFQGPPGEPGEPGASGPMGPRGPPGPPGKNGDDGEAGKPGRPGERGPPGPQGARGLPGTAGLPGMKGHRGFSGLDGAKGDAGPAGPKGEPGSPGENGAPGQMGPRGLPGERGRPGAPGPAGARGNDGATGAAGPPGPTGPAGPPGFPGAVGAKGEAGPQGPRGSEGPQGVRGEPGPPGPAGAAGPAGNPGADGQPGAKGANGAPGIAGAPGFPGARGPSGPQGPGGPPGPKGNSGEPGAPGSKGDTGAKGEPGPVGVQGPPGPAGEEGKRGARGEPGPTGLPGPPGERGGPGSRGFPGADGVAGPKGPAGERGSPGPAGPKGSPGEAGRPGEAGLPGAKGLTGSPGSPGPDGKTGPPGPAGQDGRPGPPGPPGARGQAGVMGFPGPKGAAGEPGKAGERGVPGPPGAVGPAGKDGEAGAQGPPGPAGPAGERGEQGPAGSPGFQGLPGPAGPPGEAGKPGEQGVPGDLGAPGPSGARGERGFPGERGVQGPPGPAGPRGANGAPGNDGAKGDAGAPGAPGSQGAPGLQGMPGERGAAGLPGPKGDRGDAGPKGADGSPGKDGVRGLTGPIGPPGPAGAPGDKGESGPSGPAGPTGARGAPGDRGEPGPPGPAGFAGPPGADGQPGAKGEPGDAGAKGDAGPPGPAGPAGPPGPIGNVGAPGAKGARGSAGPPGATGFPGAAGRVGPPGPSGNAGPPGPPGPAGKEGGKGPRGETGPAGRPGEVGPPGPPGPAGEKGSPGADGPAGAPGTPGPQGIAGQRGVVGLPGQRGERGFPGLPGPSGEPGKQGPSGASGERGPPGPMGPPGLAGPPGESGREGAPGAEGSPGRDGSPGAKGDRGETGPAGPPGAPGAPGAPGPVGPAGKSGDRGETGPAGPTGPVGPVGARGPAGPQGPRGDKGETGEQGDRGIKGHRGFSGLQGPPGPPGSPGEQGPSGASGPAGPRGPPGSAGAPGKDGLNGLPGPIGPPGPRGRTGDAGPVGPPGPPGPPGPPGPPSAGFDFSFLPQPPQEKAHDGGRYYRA
# Chain of denatured human collagen I (P08123 80-1119, chain 2 of 2): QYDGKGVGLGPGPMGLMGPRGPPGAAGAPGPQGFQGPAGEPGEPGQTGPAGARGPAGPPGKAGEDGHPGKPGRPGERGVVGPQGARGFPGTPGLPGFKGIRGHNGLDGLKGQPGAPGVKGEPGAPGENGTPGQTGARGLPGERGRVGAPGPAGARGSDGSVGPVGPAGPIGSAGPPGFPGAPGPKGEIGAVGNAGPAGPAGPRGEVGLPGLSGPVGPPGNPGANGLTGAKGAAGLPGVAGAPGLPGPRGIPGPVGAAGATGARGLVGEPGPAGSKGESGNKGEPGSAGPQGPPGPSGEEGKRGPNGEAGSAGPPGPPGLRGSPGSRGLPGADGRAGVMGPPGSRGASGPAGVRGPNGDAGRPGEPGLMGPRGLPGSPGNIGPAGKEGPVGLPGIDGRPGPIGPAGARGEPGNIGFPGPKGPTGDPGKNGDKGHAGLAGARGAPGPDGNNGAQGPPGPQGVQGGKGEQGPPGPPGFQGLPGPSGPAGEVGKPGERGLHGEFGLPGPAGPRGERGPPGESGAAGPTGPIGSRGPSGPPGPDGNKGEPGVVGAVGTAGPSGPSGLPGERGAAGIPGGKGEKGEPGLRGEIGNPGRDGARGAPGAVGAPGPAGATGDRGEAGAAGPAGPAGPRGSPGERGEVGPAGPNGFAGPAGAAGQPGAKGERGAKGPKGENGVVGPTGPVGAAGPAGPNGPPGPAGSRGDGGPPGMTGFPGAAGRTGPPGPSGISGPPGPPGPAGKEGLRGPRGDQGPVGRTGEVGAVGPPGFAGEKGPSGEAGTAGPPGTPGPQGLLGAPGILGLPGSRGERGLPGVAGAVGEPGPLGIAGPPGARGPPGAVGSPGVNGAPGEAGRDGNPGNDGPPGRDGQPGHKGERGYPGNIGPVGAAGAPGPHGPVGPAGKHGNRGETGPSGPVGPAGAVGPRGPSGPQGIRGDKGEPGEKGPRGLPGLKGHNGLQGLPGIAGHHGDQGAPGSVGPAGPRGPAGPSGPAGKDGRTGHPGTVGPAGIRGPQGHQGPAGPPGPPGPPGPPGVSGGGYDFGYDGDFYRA
# T2 sequence (P02462 173-1669, chain 1 of 2): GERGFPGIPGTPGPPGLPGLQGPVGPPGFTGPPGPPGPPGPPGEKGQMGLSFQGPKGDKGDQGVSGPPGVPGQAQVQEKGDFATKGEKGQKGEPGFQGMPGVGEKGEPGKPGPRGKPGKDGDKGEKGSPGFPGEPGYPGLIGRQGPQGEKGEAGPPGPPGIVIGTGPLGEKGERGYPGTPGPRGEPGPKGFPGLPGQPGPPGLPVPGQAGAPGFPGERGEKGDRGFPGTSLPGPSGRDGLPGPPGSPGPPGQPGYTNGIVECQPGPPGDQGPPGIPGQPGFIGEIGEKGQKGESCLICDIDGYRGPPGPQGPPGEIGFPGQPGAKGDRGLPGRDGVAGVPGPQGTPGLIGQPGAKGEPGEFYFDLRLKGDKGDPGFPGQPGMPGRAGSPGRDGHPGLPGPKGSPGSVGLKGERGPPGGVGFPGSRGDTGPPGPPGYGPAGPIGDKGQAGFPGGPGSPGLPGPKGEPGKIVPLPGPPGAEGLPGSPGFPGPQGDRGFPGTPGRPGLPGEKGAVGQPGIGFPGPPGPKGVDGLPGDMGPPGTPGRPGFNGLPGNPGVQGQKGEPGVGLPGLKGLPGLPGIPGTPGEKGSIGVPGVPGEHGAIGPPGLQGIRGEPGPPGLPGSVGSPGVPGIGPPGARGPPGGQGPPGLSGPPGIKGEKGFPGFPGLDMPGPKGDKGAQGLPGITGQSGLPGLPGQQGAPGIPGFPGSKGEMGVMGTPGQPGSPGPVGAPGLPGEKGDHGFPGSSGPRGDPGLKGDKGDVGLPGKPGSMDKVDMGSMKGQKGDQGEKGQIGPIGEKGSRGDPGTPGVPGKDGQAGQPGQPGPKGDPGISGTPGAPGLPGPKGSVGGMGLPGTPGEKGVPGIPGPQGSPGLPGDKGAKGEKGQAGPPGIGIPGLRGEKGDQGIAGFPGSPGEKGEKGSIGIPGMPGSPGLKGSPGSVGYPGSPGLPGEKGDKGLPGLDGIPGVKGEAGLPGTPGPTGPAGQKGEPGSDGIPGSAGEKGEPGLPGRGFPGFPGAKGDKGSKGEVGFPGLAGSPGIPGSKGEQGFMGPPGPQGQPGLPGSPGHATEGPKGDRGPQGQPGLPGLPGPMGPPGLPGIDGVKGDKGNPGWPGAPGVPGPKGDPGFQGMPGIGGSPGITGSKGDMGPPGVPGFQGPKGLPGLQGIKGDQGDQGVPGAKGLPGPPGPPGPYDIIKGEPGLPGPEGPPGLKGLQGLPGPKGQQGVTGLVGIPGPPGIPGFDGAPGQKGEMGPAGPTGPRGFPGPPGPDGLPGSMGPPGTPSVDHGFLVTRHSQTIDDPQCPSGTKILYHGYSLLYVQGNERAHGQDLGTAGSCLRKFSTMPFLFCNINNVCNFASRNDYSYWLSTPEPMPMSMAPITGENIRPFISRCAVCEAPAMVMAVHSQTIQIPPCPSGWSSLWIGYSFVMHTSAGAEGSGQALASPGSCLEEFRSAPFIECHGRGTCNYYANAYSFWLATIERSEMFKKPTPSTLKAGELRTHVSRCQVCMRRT
# T2 sequence (P08572 184-1712, chain 2 of 2): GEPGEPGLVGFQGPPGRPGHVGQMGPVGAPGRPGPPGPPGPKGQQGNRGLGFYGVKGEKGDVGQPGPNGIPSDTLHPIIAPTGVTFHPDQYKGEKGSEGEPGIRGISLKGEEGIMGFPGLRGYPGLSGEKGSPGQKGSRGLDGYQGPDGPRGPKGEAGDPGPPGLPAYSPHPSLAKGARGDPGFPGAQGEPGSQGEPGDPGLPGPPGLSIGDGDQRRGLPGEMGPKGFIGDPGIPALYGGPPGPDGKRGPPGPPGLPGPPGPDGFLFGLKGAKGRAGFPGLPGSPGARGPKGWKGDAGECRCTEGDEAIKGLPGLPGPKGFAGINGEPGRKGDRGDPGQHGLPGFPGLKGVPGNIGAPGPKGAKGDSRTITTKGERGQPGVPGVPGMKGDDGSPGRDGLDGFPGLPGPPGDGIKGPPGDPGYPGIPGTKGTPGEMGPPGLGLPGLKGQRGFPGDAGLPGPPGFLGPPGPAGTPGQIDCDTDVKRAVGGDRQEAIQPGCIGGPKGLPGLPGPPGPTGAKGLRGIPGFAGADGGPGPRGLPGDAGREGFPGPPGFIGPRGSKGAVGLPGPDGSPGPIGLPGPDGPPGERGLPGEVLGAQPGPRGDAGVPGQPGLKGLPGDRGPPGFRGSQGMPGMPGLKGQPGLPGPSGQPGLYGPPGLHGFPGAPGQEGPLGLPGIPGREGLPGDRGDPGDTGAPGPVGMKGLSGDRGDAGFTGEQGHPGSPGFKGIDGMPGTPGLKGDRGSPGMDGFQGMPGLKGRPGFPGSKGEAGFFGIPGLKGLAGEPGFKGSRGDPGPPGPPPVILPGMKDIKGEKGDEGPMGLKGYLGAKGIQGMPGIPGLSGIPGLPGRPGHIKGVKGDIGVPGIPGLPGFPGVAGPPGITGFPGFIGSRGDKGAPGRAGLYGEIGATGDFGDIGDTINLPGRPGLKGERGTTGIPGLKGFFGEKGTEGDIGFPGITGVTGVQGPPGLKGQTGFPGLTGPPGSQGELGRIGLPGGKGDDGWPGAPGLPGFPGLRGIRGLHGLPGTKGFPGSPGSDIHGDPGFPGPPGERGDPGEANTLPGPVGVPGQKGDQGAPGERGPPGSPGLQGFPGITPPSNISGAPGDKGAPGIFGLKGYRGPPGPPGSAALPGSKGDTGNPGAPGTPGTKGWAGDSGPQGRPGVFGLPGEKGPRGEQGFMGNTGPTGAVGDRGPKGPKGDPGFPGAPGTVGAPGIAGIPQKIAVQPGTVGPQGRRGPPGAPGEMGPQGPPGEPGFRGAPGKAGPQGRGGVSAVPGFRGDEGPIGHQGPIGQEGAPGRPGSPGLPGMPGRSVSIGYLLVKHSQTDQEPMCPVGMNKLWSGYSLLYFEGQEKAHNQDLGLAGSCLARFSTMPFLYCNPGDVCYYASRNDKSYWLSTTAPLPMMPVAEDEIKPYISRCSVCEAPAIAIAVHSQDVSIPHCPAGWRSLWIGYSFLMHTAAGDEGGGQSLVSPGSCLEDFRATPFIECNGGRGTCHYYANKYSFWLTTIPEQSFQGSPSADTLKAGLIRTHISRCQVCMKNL
EC50 [1],EC50 [2],EC50 [3],EC50 [4],EC50 [5],EC50 [6],EC50 [7],EC50 [8],EC50 [9],EC50 [10],Binder
2.12 nM,1.37 nM,229 nM,9.63 nM,15.2 nM,10.2 nM,–,–,–,–,P27152716 (antibody) heavy: not shown light: DIVMTQTPLSLPVTPGEPASISCRSSQSIVSSWGNTYLEWYLQKPGQSPQLLIYKVSNRFSGVPDRFSGSGSGTDFTLKISRVEAEDVGVYYCFQGSHVPWTFGQGTKVEIKRTVAAPSVFIFPPSDEQLKSGTASVVCLLNNFYPREAKVQWKVDNALQSGNSQESVTEQDSKDSTYSLSSTLTLSKADYEKHKVYACEVTHQGLSSPVTKSFNRGEC
–,–,–,–,–,–,3.94 nM,3.31 nM,18.6 nM,–,P27962716 (antibody) chain 1: not shown chain 2: DIVMTQTPLSLPVTPGEPASISCRSSQSIVSSWGNTYLEWYLQKPGQSPQLLIYKVSNRFSGVPDRFSGSGSGTDFTLKISRVEAEDVGVYYCFQGSHVPWTFGQGTKVEIKRTVAAPSVFIFPPSDEQLKSGTASVVCLLNNFYPREAKVQWKVDNALQSGNSQESVTEQDSKDSTYSLSSTLTLSKADYEKHKVYACEVTHQGLSSPVTKSFNRGEC
76.3 nM,–,197 nM,59.6 nM,86.2 nM,–,–,–,–,9.97 nM,P27152798 (antibody) heavy: not shown light: DIVMTQTPLSLPVTPGEPASISCRSSQSIVHSNANTYLEWYLQKPGQSPQLLIYKVSNRFSGVPDRFSGSGSGTDFTLKISRVEAEDVGVYYCFQGSHVPWTFGQGTKVEIKRTVAAPSVFIFPPSDEQLKSGTASVVCLLNNFYPREAKVQWKVDNALQSGNSQESVTEQDSKDSTYSLSSTLTLSKADYEKHKVYACEVTHQGLSSPVTKSFNRGEC

# The remaining lines, values behind:
Binder,EC50 [1],EC50 [2],EC50 [3],EC50 [4],EC50 [5],EC50 [6],EC50 [7],EC50 [8],EC50 [9],EC50 [10]
P27122713 (antibody) heavy: not shown light: DIVMTQTPLSLPVTPGEPASISCRSSQSIVHSNGNTYLEWYLQKPGQSPQLLIYKVSNRFSGVPDRFSGSGSGTDFTLKISRVEAEDVGVYYCFQGSHVPWTFGQGTKVEIKRTVAAPSVFIFPPSDEQLKSGTASVVCLLNNFYPREAKVQWKVDNALQSGNSQESVTEQDSKDSTYSLSSTLTLSKADYEKHKVYACEVTHQGLSSPVTKSFNRGEC,59.7 nM,10.4 nM,487 nM,32.9 nM,~259 nM,–,–,–,–,–
P27122714 (antibody) chain 1: not shown chain 2: DIVMTQTPLSLPVTPGEPASISCRSSQSIVHSQGNTYLEWYLQKPGQSPQLLIYKVSNRFSGVPDRFSGSGSGTDFTLKISRVEAEDVGVYYCFQGSHVPWTFGQGTKVEIKRTVAAPSVFIFPPSDEQLKSGTASVVCLLNNFYPREAKVQWKVDNALQSGNSQESVTEQDSKDSTYSLSSTLTLSKADYEKHKVYACEVTHQGLSSPVTKSFNRGEC,80.8 nM,33.9 nM,–,–,–,–,–,–,–,–
P27122716 (antibody) chain 1: not shown chain 2: DIVMTQTPLSLPVTPGEPASISCRSSQSIVSSWGNTYLEWYLQKPGQSPQLLIYKVSNRFSGVPDRFSGSGSGTDFTLKISRVEAEDVGVYYCFQGSHVPWTFGQGTKVEIKRTVAAPSVFIFPPSDEQLKSGTASVVCLLNNFYPREAKVQWKVDNALQSGNSQESVTEQDSKDSTYSLSSTLTLSKADYEKHKVYACEVTHQGLSSPVTKSFNRGEC,19 nM,125 nM,–,–,–,–,–,–,–,–
"P27152714 (antibody, V domains shown) VH: QVTLKESGPALVKPTQTLTLTCTFSGFSLSTPGMGVWWIRQPPGKALEWLADIWWDDNKYTNPSLKSRLTISKDTSKNQVVLTMTNMDPVDTATYYCARRANYGNPYYAQDYWGQGTTVTVSS VL: DIVMTQTPLSLPVTPGEPASISCRSSQSIVHSQGNTYLEWYLQKPGQSPQLLIYKVSNRFSGVPDRFSGSGSGTDFTLKISRVEAEDVGVYYCFQGSHVPWTFGQGTKVEIKR",18.5 nM,13 nM,–,–,–,–,–,–,–,–

# — patent US20230257453A1 (published 2023)
